Measured values published in the nanobody polyreactivity screen of Harvey et al. (2022).

Assay: yeast display, Sf9 membrane polyspecificity reagent, FACS + sequencing; frameworks hold sequencing errors
In short: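 Nanobodies came from a synthetic yeast display library in Saccharomyces cerevisiae BJ5465, induced with galactose for 36–48 hours and stained for 1 hour at 4 °C with 10% biotinylated, detergent-solubilized Sf9 membrane reagent. Cells were enriched on streptavidin microbeads and then FACS-sorted, with low and high (top ~1%) gates set on anti-HA fluorescence for expression and streptavidin fluorescence for reagent binding. Each polyreactivity label reflects the gate a clone came from. Genes were amplified by colony PCR, sequenced by MiSeq 2 × 250 and filtered by CDR length.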

| Sequence | polyreactivity (PSR sort gate) |
| --- | --- |
| QVQLVESGGVLVQAGGSLRLSCAASGFIFKYYAMGWYRQATGKERDLVAAISSSGGRKYYADSVKGRFTISRDNAKNTVYLHMNRLKPEDTAVYYCNKATFVTYYFLGYDYWGQGTQVTVSS | high polyreactivity |
| QVQLVESGGVLVQAGGSLRLSCAASGFTFAYYAMGWYRQAPGKVRELVASITRSGGSTYYADSVKGRFTLSRDNAKNTVYLQMNSLKPEDTAVYYCAARYGLVRDVIPYDYWGQGTQVTVSS | high polyreactivity |
| QVQLVESGGVLVQAGGSLRLSCAASGFTFYRYDMGWYRQAPVKERELVAAITWSGGSTYYADSLKGRFTISRDNAKNTVYLQMNSLKPEDTAVYDCAAENYDGGFEYWGLGTQVTVSS | low polyreactivity |
| QVQLVESGGVLVQAGGSLRLSCAASGFTLKWNAMGWYRQAPGKERELVARISRSGGSTNYADSVKGRFTISRDNAKNTVYLQMISLKPEDTAVFYCNTPSSREMDYWGQGTQVTVSS | low polyreactivity |
| QVQLVESGGVLVQAGGSLRLSCAASGITFEYYAMGWYRQAPGKERELVAAISWSGSSTYYADSVKGRFTISRDNAKNTVYLQMNSLKPEDTAVYYCNADSAWWASDDQYDYWGQGTQVTVSS | low polyreactivity |
| QVQLVESGGVLVQAGGSLRLSCAASGITLPVYGMGWYRQAPGKERELVAVIDIVGITNYADSVKGRFTISRDNAKNTVYLQMNSLNPEDTAVYYCAKRYVYIADGGEYYYWGQGTQVTVSS | low polyreactivity |
| QVQLVESGGVLVQAGGSLRLSCAASGLIFKFYAMGWYRQAPGKERELVARISSSGGSTYYADSVKGRFTTSRDNAKNTVYLQMNSLKPEDTAVSYCAAGAYYVDRYARSSIFSYYYWGQATQVTVSS | high polyreactivity |
| QVQLVESGGVLVQAGGSLRLSCAASGLTIQTNAMGWYREAPVKERELVAAISRRGSSTYYADSVKGRFTISRDNAKNTVYLQMISLKPEDTAVYYCATGGVLYPYWRGKRYGYWGQGTQVTVSS | high polyreactivity |
| QVQLVESGGVLVQAGGSLRLSCAASGRIFRYYAMGWYRQAPGKERELVAAIRYRSGGTYYADSVKGRFTISRDNAKNTVYLQMNSLKTEDTAVYYCNADKRLRGHGYDYWGEGTQVTVSS | high polyreactivity |
| QVQLVESGGVLVQAGGSLRLSCAASGRIFSYYAMGWYRQAPGKERELVARITSRGASTYYADSVKGRFTISRDNAKNTVYLQMNSLKPEDTAVYYCAARKDSTRRFDYWGQGTQVTVLS | high polyreactivity |
| QVQLVESGGVLVQAGGSLRLSCAASGRTFGHYAMGWYRQAPGKERELVAAITRDDGTNYADSVKGRFTISRDNAKNTVYLQMNSLKPEDTAVYYCDRDVLEKYRQSWGYVPLQGYDYWGQGTQVTVSS | low polyreactivity |
| QVQLVESGGVLVQAGGSLRLSCAASGRTFNLIAMGWYRQAPGKERELVAAISRSGGSTYYADSEKGRFTISRDNAKNTVYLQMNSLNPEETAVYYCNASALGRPYYRGSYFVFQGYEYWGLGTQVTVSS | low polyreactivity |
| QVQLVESGGVLVQAGGSLRLSCAASGSIFCVNAMGWSRQAPGKERELVAAISWRGASTYYADSVKGRFTISRDNAMNTVYLQMNSLKPEDTAVYYCAAKCTGGDPYYAFDYWGQGTHVTVSS | low polyreactivity |
| QVQLVESGGVLVQAGGSLRLSCAASGSIFEPYVMGWYRQPPGKERELVAAIRQSGGSTYYADSVKGRFTISRDNAKNTVYLQMNSLKPEDTAVYYCNAEQNPSGLYDYRGVEGEMGYWRQGTQVTVSS | low polyreactivity |
| QVQLVESGGVLVQAGGSLRLSCAASGSIFGNYAMGWYRQAPGKETELVAAISYRGGSTYYADSVKGRFTISRDNAKNTVYLQMNSLKPEDTAVYYCNAGGRRRIFAHSSTGDYWGQGTQVTVSS | high polyreactivity |
| QVQLVESGGVLVQAGGSLRLSCAASGSIFSSNAMGWYRQAPGKERELVAAISSSGGSTYYADSVKGRFTISRDNAKNTVYLQMNSLKPEDTAVYYCATGKQVYGHYYWGQGTQVTVSS | low polyreactivity |
| QVQLVESGGVLVQAGGSLRLSCAASGSLFILYALGWYRQEPGKEREFVASISRSGSTYYADSVKGRFTISRDNAKNSVYLQMNSLKPEDTAVYYCAADYRQFYRYVDYEYWGQGTQVTVSS | low polyreactivity |
| QVQLVESGGVLVQAGGSLRLSCAASGSTFYTYAMGWYRQAPGKERELVAAITRRGGRTYYADSVKGRFTISRDIAKNTVYLQMNSLKPEDTSVYYCAAYPWATCYGEWGQGTQVTVSS | high polyreactivity |
| QVQLVESGGVLVQAGGSLRLSCAASGYINGRYVMGWYRTAPGKETELVAAITSSGGSTYYADSVKGRFTISRDNAKNTVYLQINILSPDDTAVYYCAAPTYGRFLRNDYWGPGTQVTVSS | high polyreactivity |
| QVQLVESGGVLVQAGGSLRLSCADSGSTFFFYAMGWYRHAPGKERELLAAISSTGRTYYADSVKGRFTISRDNAKNSVYLQMNSLKPEETAVYYCAARIYSGYSYWGQGTQVTVSS | high polyreactivity |
| QVQLVESGGVLVQAGGSLRLTCAAYGFSFSTYAMGWYRQAPGKERQLVASIDWSGDSTYYADSVKGRFTISRDNAKNTVYLQMNSLKPEDTAVYYCAADDASYPYIFDSYDYWGQGTQVTVSS | low polyreactivity |
